Experimental data reported in PMC4384432.

Target: β-haemoglobin (β^h), haem-bound, from human blood (human)
Assay: SEC-MALS

- stoichiometry N: 4
Substance: β-haemoglobin (β^h), haem-bound, from human blood (natural protein)
